Paper PMC10786891, “Massively parallel profiling of RNA-targeting CRISPR-Cas13d”
Changes are numbered by the printed parent chain. In names and notes the source's numbering stands.

B1: target 1 insU 3' of 13,insA 3' of 13 (mixed)
RNA 1: CACCCGUGCAAAAAUGCAGGGGUCUAAAACUGAGCGGAUAACCUCUCUAUGG
RNA 2: GGGAAUGGAUCCACAUCUACGAAUUCGUACCAUAGAGAGUAGUUAUCCGCUCACCGAGAUCGGAAGAGCACACGU
B2: target 1 MT 5'PFS CUG 3'PFS ACC (mixed)
RNA 1: B1 RNA 1
RNA 2: GGGAAUGGAUCCACAUCUACGAAUUCCUGCCAUAGAGAGGUUAUCCGCUCAACCAGAUCGGAAGAGCACACGU
B3: target 1 insG 3' of 9,insU 3' of 9 (mixed)
RNA 1: B1 RNA 1
RNA 2: B1 RNA 2 with U40G, A41U, G42U, U43A, U44G, A45U
B4: target 1 MT 5'PFS AUG 3'PFS CCC (mixed)
RNA 1: B1 RNA 1
RNA 2: B2 RNA 2 with C27A, A52C
B5: target 1 MT 5'PFS CUA 3'PFS CGU (mixed)
RNA 1: B1 RNA 1
RNA 2: B2 RNA 2 with G29A, A52C, C53G, C54U
B6: target 1 MT 5'PFS UUG 3'PFS AUG (mixed)
RNA 1: B1 RNA 1
RNA 2: B2 RNA 2 with C27U, C53U, C54G
B7: target 1 MT 5'PFS GUA 3'PFS UAC (mixed)
RNA 1: B1 RNA 1
RNA 2: B2 RNA 2 with C27G, G29A, A52U, C53A
B8: target 1 MT 5'PFS UCG 3'PFS AUA (mixed)
RNA 1: B1 RNA 1
RNA 2: B2 RNA 2 with C27U, U28C, C53U, C54A
B9: target 1 MT 5'PFS CUG 3'PFS ACG (mixed)
RNA 1: B1 RNA 1
RNA 2: B2 RNA 2 with C54G
B10: target 1 insC 3' of 18,insC 3' of 3 (mixed)
RNA 1: B1 RNA 1
RNA 2: GGGAAUGGAUCCACAUCUACGAAUUCGUACCAUACGAGAGGUUAUCCGCUCCACCGAGAUCGGAAGAGCACACGU
B11: target 1 MT 5'PFS GAG 3'PFS AGU (mixed)
RNA 1: B1 RNA 1
RNA 2: B2 RNA 2 with C27G, U28A, C53G, C54U
B12: target 1 MT 5'PFS GUU 3'PFS AGA (mixed)
RNA 1: B1 RNA 1
RNA 2: B2 RNA 2 with C27G, G29U, C53G, C54A
B13: target 1 G5C,A16G (mixed)
RNA 1: B1 RNA 1
RNA 2: B2 RNA 2 with C27G, G29A, A36G, G47C, A52C, C54G
B14: target 1 MT 5'PFS UGC 3'PFS UCG (mixed)
RNA 1: B1 RNA 1
RNA 2: B2 RNA 2 with C27U, U28G, G29C, A52U, C54G
B15: target 1 MT 5'PFS GUA 3'PFS GGG (mixed)
RNA 1: B1 RNA 1
RNA 2: B2 RNA 2 with C27G, G29A, A52G, C53G, C54G
B16: target 1 MT 5'PFS UGC 3'PFS UCA (mixed)
RNA 1: B1 RNA 1
RNA 2: B2 RNA 2 with C27U, U28G, G29C, A52U, C54A
B17: target 1 MT 5'PFS GCA 3'PFS UAC (mixed)
RNA 1: B1 RNA 1
RNA 2: B2 RNA 2 with C27G, U28C, G29A, A52U, C53A
B18: target 1 MT 5'PFS GUA 3'PFS UAG (mixed)
RNA 1: B1 RNA 1
RNA 2: B2 RNA 2 with C27G, G29A, A52U, C53A, C54G
B19: target 1 MT 5'PFS GUU 3'PFS GGG (mixed)
RNA 1: B1 RNA 1
RNA 2: B2 RNA 2 with C27G, G29U, A52G, C53G, C54G
B20: target 1 MT 5'PFS GUA 3'PFS UAA (mixed)
RNA 1: B1 RNA 1
RNA 2: B2 RNA 2 with C27G, G29A, A52U, C53A, C54A
B21: target 1 MT 5'PFS GUA 3'PFS UGU (mixed)
RNA 1: B1 RNA 1
RNA 2: B2 RNA 2 with C27G, G29A, A52U, C53G, C54U
B22: target 1 MT 5'PFS UUG 3'PFS AUA (mixed)
RNA 1: B1 RNA 1
RNA 2: B2 RNA 2 with C27U, C53U, C54A
B23: target 1 MT 5'PFS CUA 3'PFS AAG (mixed)
RNA 1: B1 RNA 1
RNA 2: B2 RNA 2 with G29A, C53A, C54G
B24: target 1 MT 5'PFS GAG 3'PFS UGU (mixed)
RNA 1: B1 RNA 1
RNA 2: B2 RNA 2 with C27G, U28A, A52U, C53G, C54U
B25: target 1 MT 5'PFS GAG 3'PFS AGA (mixed)
RNA 1: B1 RNA 1
RNA 2: B2 RNA 2 with C27G, U28A, C53G, C54A
B26: target 1 MT 5'PFS GCU 3'PFS UUU (mixed)
RNA 1: B1 RNA 1
RNA 2: B2 RNA 2 with C27G, U28C, G29U, A52U, C53U, C54U
B27: target 1 MT 5'PFS CUA 3'PFS UGA (mixed)
RNA 1: B1 RNA 1
RNA 2: B2 RNA 2 with G29A, A52U, C53G, C54A
B28: target 1 MT 5'PFS GUU 3'PFS AGC (mixed)
RNA 1: B1 RNA 1
RNA 2: B2 RNA 2 with C27G, G29U, C53G
B29: target 1 MT 5'PFS UGC 3'PFS UCC (mixed)
RNA 1: B1 RNA 1
RNA 2: B2 RNA 2 with C27U, U28G, G29C, A52U
B30: target 1 MT 5'PFS GUU 3'PFS AGU (mixed)
RNA 1: B1 RNA 1
RNA 2: B2 RNA 2 with C27G, G29U, C53G, C54U
B31: target 1 MT 5'PFS UUA 3'PFS CAA (mixed)
RNA 1: B1 RNA 1
RNA 2: B2 RNA 2 with C27U, G29A, A52C, C53A, C54A
B32: target 1 MT 5'PFS GCA 3'PFS UAG (mixed)
RNA 1: B1 RNA 1
RNA 2: B2 RNA 2 with C27G, U28C, G29A, A52U, C53A, C54G
B33: target 1 MT 5'PFS CUG 3'PFS ACA (mixed)
RNA 1: B1 RNA 1
RNA 2: B2 RNA 2 with C54A
B34: target 1 MT 5'PFS GCA 3'PFS UAU (mixed)
RNA 1: B1 RNA 1
RNA 2: B2 RNA 2 with C27G, U28C, G29A, A52U, C53A, C54U
B35: target 1 MT 5'PFS GUA 3'PFS UAU (mixed)
RNA 1: B1 RNA 1
RNA 2: B2 RNA 2 with C27G, G29A, A52U, C53A, C54U
B36: target 1 MT 5'PFS GCA 3'PFS UAA (mixed)
RNA 1: B1 RNA 1
RNA 2: B2 RNA 2 with C27G, U28C, G29A, A52U, C53A, C54A
B37: target 1 MT 5'PFS GUU 3'PFS AGG (mixed)
RNA 1: B1 RNA 1
RNA 2: B2 RNA 2 with C27G, G29U, C53G, C54G
B38: target 1 MT 5'PFS UUG 3'PFS AUC (mixed)
RNA 1: B1 RNA 1
RNA 2: B2 RNA 2 with C27U, C53U
B39: target 1 MT 5'PFS UUA 3'PFS CAG (mixed)
RNA 1: B1 RNA 1
RNA 2: B2 RNA 2 with C27U, G29A, A52C, C53A, C54G

Target: T1, EsCas13d, nuclease-dead (Eubacterium siraeum, UniProt B0MS50, R295A;H300A;R849A;H854A)
T1 sequence: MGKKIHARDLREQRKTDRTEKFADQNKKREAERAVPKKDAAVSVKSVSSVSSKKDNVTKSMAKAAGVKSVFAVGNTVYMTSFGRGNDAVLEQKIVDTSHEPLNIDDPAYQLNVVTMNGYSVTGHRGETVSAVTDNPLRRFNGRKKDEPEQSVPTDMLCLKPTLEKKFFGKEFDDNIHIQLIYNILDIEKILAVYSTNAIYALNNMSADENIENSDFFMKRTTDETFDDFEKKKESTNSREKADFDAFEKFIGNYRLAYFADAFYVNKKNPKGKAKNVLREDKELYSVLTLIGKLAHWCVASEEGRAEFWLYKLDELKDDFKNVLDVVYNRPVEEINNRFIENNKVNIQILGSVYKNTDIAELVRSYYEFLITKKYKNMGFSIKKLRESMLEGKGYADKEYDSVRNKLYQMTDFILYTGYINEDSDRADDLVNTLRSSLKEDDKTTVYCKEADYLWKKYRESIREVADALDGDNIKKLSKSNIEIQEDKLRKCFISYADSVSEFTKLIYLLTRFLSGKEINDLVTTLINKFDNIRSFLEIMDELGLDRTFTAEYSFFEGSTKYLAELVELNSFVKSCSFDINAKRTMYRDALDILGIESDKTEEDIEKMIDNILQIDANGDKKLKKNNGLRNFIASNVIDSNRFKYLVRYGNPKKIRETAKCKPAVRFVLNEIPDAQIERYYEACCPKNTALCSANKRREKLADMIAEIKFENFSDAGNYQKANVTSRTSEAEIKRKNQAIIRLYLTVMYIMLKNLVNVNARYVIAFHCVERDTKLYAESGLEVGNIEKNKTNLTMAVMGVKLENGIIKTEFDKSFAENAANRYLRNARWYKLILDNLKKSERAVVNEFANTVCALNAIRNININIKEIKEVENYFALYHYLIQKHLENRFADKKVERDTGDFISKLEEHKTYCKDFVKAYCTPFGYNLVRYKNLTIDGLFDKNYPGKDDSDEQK
Experiment: crRNA (strand 1, pre-loaded); Mg2+; 40 mM Tris-HCl pH 7.5, 150 mM NaCl, 6 mM MgCl2, 1 mM DTT, 0.1% Tween-20, 0.2 mg/ml BSA; 25 C; 10 min per concentration, then washed
Conditions: tags: His6-TwinStrep-SUMO cleaved; N-terminal SNAP kept (SNAP-Surface 488); label: 3' end held by stalled T7 RNA polymerase

Binder	Kd [nM]
B1	4.35 ± 0.17
B2	6.1 ± 1.45
B3	17.9 ± 0.9
B4	~40.5
B5	17 ± 6
B6	83 ± 35
B7	13.2 ± 1.25
B8	37.5 ± 10.5
B9	6.85 ± 1.6
B10	32 ± 4
B11	47.5 ± 16.5
B12	27.4 ± 5.25
B13	65 ± 11
B14	12.1 ± 2.7
B15	30.6 ± 3.7
B16	11.5 ± 5.3
B17	14 ± 2.55
B18	13.7 ± 0.9
B19	81 ± 29
B20	13.8 ± 1.35

Binder	Kd [nM]
B21	19.1 ± 0.95
B22	58.5 ± 20
B23	11.4 ± 4
B24	64.5 ± 30.5
B25	37 ± 13
B26	24.1 ± 3.8
B27	22 ± 7.5
B28	15.6 ± 3.35
B29	30 ± 10.5
B30	21.7 ± 3.85
B31	49 ± 21
B32	19.4 ± 4.95
B33	8.25 ± 2.25
B34	10.8 ± 1.45
B35	9.75 ± 0.7
B36	19 ± 6.5
B37	66.5 ± 11.5
B38	37.5 ± 13
B39	49.5 ± 20
